# Assay results reported in patent US11760795B2, “Monoclonal antibodies to growth and differentiation factor 15 (GDF-15), and uses thereof for treating cancer cachexia and cancer” (JULIUS-MAXIMILIANS-UNIVERSITÄT WÜRZBURG, priority 2014, dated 2023).
# Numbering of substitutions follows the chain as printed.
# T1: recombinant mature human GDF-15 protein derived from expression in E. coli (Homo sapiens, UniProt Q99988)
# T1 construct: recombinant mature human GDF-15 protein was immobilized on flow cells 1 and 2; made in house; host or cells: E. coli
# T1 sequence (Q99988 195-308): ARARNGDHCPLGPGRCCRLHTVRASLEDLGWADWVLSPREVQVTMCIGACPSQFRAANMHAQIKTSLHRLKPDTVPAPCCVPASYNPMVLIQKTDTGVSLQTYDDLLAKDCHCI
# T2: recombinant mature human GDF-15 protein (Homo sapiens, UniProt Q99988)
# T2 construct: made in house; host or cells: Baculovirus-transfected HighFive insect cells
# T2 sequence (Q99988 with tags, fused parts or gaps): T1 sequence (Q99988 195-308) with A1G, R2S
# T3: recombinant human GDF-15 (Homo sapiens, UniProt Q99988)
# T3 sequence (Q99988 with tags, fused parts or gaps): T1 sequence (Q99988 195-308) with A1G, R2S
# B1: mAb-B1-23: murine IgG2a (kappa) monoclonal anti-human GDF-15 antibody produced by hybridoma cell line B1-23, DSM ACC3142 (antibody, V domains shown)
# VH: QVKLQQSGPGILQSSQTLSLTCSFSGFSLSTSGMGVSWIRQPSGKGLEWLAHIYWDDDKRYNPTLKSRLTISKDPSRNQVFLKITSVDTADTATYYCARSSYGAMDYWGQGTSVTVSS
# VL: DIVLTQSPKFMSTSVGDRVSVTCKASQNVGTNVAWFLQKPGQSPKALIYSASYRYSGVPDRFTGSGSGTDFTLTISNVQSEDLAEYFCQQYNNFPYTFGGGTKLEIKRTVA
# Legend:
# [1] = biological target: T1, recombinant mature human GDF-15 protein derived from expression in E. coli; experiment: Surface plasmon resonance binding to recombinant GDF-15 derived from E. coli expression; details: SPR
# Source text: For preparing the biosensors recombinant mature human GDF-15 protein was immobilized on flow cells 1 and 2. On one flow cell recombinant GDF-15 derived from Baculvirus-transfected insect cells (HighFive insect cells) and on the other recombinant protein derived from expression in E. coli was used. The GLC sensor chip was activated using Sulfo-NHS (N-Hydroxysulfosuccinimide) and EDC (1-Ethyl-3-[3-dimethylaminopropyl]carbodiimide hydrochloride) (Bio-Rad® ProteOn™ Amine Coupling Kit) according to the manufacturer's recommendation, the sensor surface was subsequently loaded with the proteins up to a density of about 600RU (1Ru=1 pg mm^−2). The non-reacted coupling groups were then quenched by perfusion with 1M ethanolamine pH 8.5 and the biosensor was equilibrated by perfusing the chip with running buffer ([…], 150 mM NaCl, 3.4 mM EDTA, 0.005% Tween® 20, pH 7.4, referred to as HBS150). […] The resulting sensogram was analyzed using the software ProteOn Manager version 3.0. […] For the association rate constant a value of 5.4±0.06×10^5 M^−1s^−1 (kon) and for the dissociation rate constant a value of 4.3±0.03×10^−4 s^−1 (koff) could be determined (values are for the interaction of anti-human GDF-15 mAb-B1-23 with GDF-15 derived from insect cell expression).
# [2] = biological target: T2, recombinant mature human GDF-15 protein; experiment: Surface plasmon resonance binding to immobilized recombinant mature human GDF-15 (insect cell derived); details: GDF-15 derived from insect cell expression; 25° C.; 1:1 Langmuir-type interaction
# Experimental: Binding of monoclonal anti-human-GDF-15 antibodies according to the invention is generally assessed by employing surface plasmon resonance measurements using a Bio-Rad® ProteOn™ XPR36 system and Bio-Rad® GLC sensor chips as described for murine anti-human GDF-15 mAb-B1-23 in Example 1.
# Binding of the monoclonal anti-human-GDF-15 antibody anti-human GDF-15 mAb-B1-23 was measured by employing surface plasmon resonance measurements using a Bio-Rad® ProteOn™ XPR36 system and Bio-Rad® GLC sensor chips:
# For preparing the biosensors recombinant mature human GDF-15 protein was immobilized on flow cells 1 and 2. On one flow cell recombinant GDF-15 derived from Baculvirus-transfected insect cells (HighFive insect cells) and on the other recombinant protein derived from expression in E. coli was used. […] The resulting sensogram was analyzed using the software ProteOn Manager version 3.0. […] For the association rate constant a value of 5.4±0.06×10^5 M^−1s^−1 (kon) and for the dissociation rate constant a value of 4.3±0.03×10^−4 s^−1 (koff) could be determined (values are for the interaction of anti-human GDF-15 mAb-B1-23 with GDF-15 derived from insect cell expression).
# recombinant human GDF-15 = biological target: T3, recombinant human GDF-15; experiment: Mass spectrometric epitope excision; assay type: binding; details: trypsin 2 h at 37° C., MS/MS identification
# Experimental: The epitope of recombinant human GDF-15 which binds to the antibody B1-23 was identified by means of the epitope excision method and epitope extraction method (Suckau et al. Proc Nati Acad Sci USA. 1990 December; 87(24): 9848-9852; R. Stefanescu et al., Eur. J. Mass Spectrom. 13, 69-75 (2007)).
# For preparation of the antibody column, the antibody B1-23 was added to NHS-activated 6-aminohexanoic acid coupled sepharose. The sepharose-coupled antibody B1-23 was then loaded into a 0.8 ml microcolumn and washed with blocking and washing buffers.
# The immobilized antibody B1-23 on the affinity column was then incubated with recombinant GDF-15 for 2 h. The formed immune complex on the affinity column was then incubated with trypsin for 2 h at 37° C. […] The immobilized antibody itself is proteolytically stable. The resulting peptides of the digested GDF-15 protein, which were shielded by the antibody and thus protected from proteolytic cleavage, were eluted under acidic conditions (TFA, pH2), collected and identified by mass spectrometry.
# [3] = test system: GDF-15 mediated JNK1/2-phosphorylation in immune cells; experiment: JNK1/2 phosphorylation in immune cells (Western Blot); assay type: cell-based; details: 2 μg antibody, 10 ng/ml GDF-15, 5 minute preincubation
# Experimental: FIG. 3: JNK1/2 Phosphorylation in Immune Cells. In order to quantify the Western Blot, the ratio of phosphorylated JNK1/2 to the total amount of JNK was calculated and normalized to the untreated control.
# c) Treatment of immune cells with recombinant. GDF-15 led to the phosphorylation of JNK, a kinase, which is activated either by cytokines or by stress. Antagonization of 10 ng/ml GDF-15 with 2 μg mAb-B1-23 (5 minute preincubation at 37°) blocked the GDF-15 mediated JNK1/2-phosphorylation (FIG. 3).
# [4] = test system: GDF-15 mediated downregulation of NKG2D on NK cells; experiment: NKG2D surface expression on NK cells after GDF-15 treatment (flow cytometry); assay type: cell-based; details: 72 hours incubation
# Experimental: FIG. 1: NKG2D Expression on NK Cells after Treatment with or without GDF-15. The cell surface expression of NKG2D was determined on NK cells after treatment with the indicated cytokines in the presence or absence of the anti-GDF-15 antibody mAb B1-23.
# a) The NKG2D (Natural Killer Group 2D) receptor, which is expressed on NK cells and CD8+ T cells, is known to play an important role in the immune surveillance against tumors. Transformed as well as viral infected cells express ligands, which bind to the NKG2D receptor, thereby activating the cytotoxic effector functions of the described immune cells. In that way transformed cells can be detected and eliminated by the immune system.
# After 72 hours incubation the immune cells were stained with the following FACS-antibodies: anti CD3, anti CD56, anti-NKG2D. Using this antibody combination, the experiment focused on NK cells and their NKG2D surface expression. The low NKG2D level on immune cells led to an impaired tumor/target cell lysis. The GDF-15 mediated downregulation of NKG2D was prevented by mAb B1-23.
molecule,measurement,setting,value
B1,"deviation of rate constants, GDF-15 from insect cells vs E. coli",[1],about 45%
same,association rate constant (kon),[2],5.4±0.06×10^5 M^−1s^−1
same,dissociation rate constant (koff),[2],4.3±0.03×10^−4 s^−1
same,positions of GDF-15 peptides forming the immune complex (epitope),recombinant human GDF-15,40-55 ([…]) and 94-114 ([…])
same,GDF-15 mediated JNK1/2-phosphorylation,[3],blocked
same,GDF-15 mediated downregulation of NKG2D,[4],prevented
